System: MS2 coat protein
Assay: apparent KD of MS2 coat protein; designed switch direction (-1 OFF switch, 1 ON switch): 1; higher = weaker reporter binding
Outline: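 Designed RNA switches with common flanks were transcribed on Illumina chips by stalled E. coli RNA polymerase and titrated with SNAP-549-labelled MS2 coat protein, from 0.7 or 1.5 nM doubling to 3 µM, in Tris-HCl pH 7.5 buffer with KCl, MgCl2, BSA, DTT, tRNA and Tween-20. Steps lasted 0.8–1.5 h (lowest) to 10–20 min (highest). Titrations ran without input, with 200 uM small-molecule ligand, or with an oligonucleotide input. Normalised cluster fluorescence was curve-fitted, and apparent KD is the per-design median over clusters.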

[1] = Eterna round: R95, input ligand: FMN 200 uM
[2] = Eterna round: R95, input ligand: microRNA oligo, concentration not stated
[3] = Eterna round: R95, input ligand: none
[4] = input ligand: microRNA oligo, concentration not stated

| Sequence | apparent KD of MS2 coat protein [1] | apparent KD of MS2 coat protein [2] | apparent KD of MS2 coat protein [3] | apparent KD of MS2 coat protein (input ligand: FMN 200 uM) | apparent KD of MS2 coat protein [4] | apparent KD of MS2 coat protein (input ligand: none) |
| --- | --- | --- | --- | --- | --- | --- |
| GUAAAACAUGAGGAUCACCCAUGUCAUCUAAGUCGAGGAUAUGGGAAUUAAUUAAUUAAUCCAGAAGGCGAAAAUG [Mat - Same State 1 - D94] (puzzle: Same State 1) | 41.1 nM | 58.1 nM | 110 nM | – | – | – |
| ACAUGAGAGAAAGGAUAUGGUGUACCUACAUGUGACAUGAGGAUCACCCAUGUGGUAAGUAUGACUCAGAAGGUUCAGAUAUGU [Equivalance 73 - Jieux - Same State NG 2] (Eterna round: R96, puzzle: Same State NG 2) | – | – | – | 16.9 nM | 65.6 nM | 126 nM |
| CAGCGUACCGGAGGAUAUUGUGGAUACGACCAACAUGAGGAUCACCCAUGUGGGACUAGUCAAAUCAAGAAGGUUGGACCGUCA [Eternabot solution 44] (Eterna round: R96, puzzle: Same State NG 2) | – | – | – | 26.2 nM | 25.6 nM | 33.3 nM |
| GUAAGUUUGAUGCUCGUCUCUCCGUACAGACAUGAGGAUCACCCAUGUAGUCGGGAAGUAGCCCGGCCAGUAUGGCC [Zaorve] (puzzle: Sensor for hsa-mir-208a) | 18.1 nM | 22.2 nM | 17.7 nM | – | – | – |
| UUGAAGAAUUAAGGAUAUUGAUUACAUAUGUUAAACAUGAGGAUCACCCAUGUGGGUUGCGGUAUCGAGAAGGUAAAUUAAAAG [Mat - same State NG 2 - JL mod - D78] (Eterna round: R96, puzzle: Same State NG 2) | – | – | – | 171 nM | 123 nM | 146 nM |
| AACCCAAUGGAAGGAUAUGGCACCUUAUUGGUGCCAGAAGGUCCUAACAUGAGGAUCACCCAUGUGGGCCGGUCUUAAGACCGG [Fiskers NG1ss - 8] (Eterna round: R96, puzzle: Same State NG 1) | – | – | – | 142 nM | 382 nM | 456 nM |
| ACAUGAACAUGAGGAUCACCCAUGUUUAGGAUCACCCAUGCUCAGGAUAUAGCAUGAGGACAUGACUAGAAGGGAGGUGCUGAG [Same State NG3 S2] (Eterna round: R96, puzzle: Same State NG 3) | – | – | – | 41 nM | 27 nM | 36.1 nM |
| AUAUGAGAAGCAGGAUAUGCGGAGAAGAAAGAAGCAGAAGGGCUUAUGGGACAACAUGAGGAUCACCCAUGUUCUCUGCGAUGA [AK SSNG1-V2-3.1] (Eterna round: R96, puzzle: Same State NG 1) | – | – | – | 60.6 nM | 148 nM | 135 nM |
| AGGCCACCGGGAGGAUAUGGCACCUAUAUGGUGCCAGAAGGCUCAACAUGAGGAUCACCCAUGUGGGUGGGUUCUAAUGAACAA [Fiskers NG1 - 1] (Eterna round: R96, puzzle: Same State NG 1) | – | – | – | 69.1 nM | 41.7 nM | 46.7 nM |
| AUUAAACAUGAGGAUCACCCAUGUCAACAAAGUCGAGGAUAUGGGCAAAUAAUAUAAUAACCAGAAGGCGAAUAAU [salish99_ss1_r3_081] (puzzle: Same State 1) | 36.7 nM | 28.1 nM | 97 nM | – | – | – |
| ACAUGAGAUUGAGGAUAUAUAGUACCUACAUGUGACAUGAGGAUCACCCAUGUGGUAAGUAUGACAUAGAAGGCAAAGAUAUGU [Equivalance 99 - Jieux - Same State NG 2] (Eterna round: R96, puzzle: Same State NG 2) | – | – | – | 35 nM | 37.6 nM | 50.6 nM |
| AAGUAGGAGUUACAGGAUAUAUGGAGAAGGACAUGAGGAUCACCCAUGUGAGAGAUGAGAGGAAGAUAGAAGGGUAAGGGAGUAA [JR_SS2_Sub026] (puzzle: Same State 2) | 44 nM | 41.4 nM | 77.2 nM | – | – | – |
| GUUACAUGAGGAUCACCCAUGUGUGUGUGGGAGUAAGUGGCUUAGGAUAUCUAUGAUUUAAGUUAAGAGAAGGAAGAUUGUUGU [SS-NG3-LRO02] (Eterna round: R96, puzzle: Same State NG 3) | – | – | – | 194 nM | 204 nM | 272 nM |
| CUGAGCGAUUAAGGAUAUCACGUCGAUUAGACGUGAGAAGGUGAUCAUAACAUGAGGAUCACCCAUGUAUUACAUGAAGCUCAG [SSNG1/3-A2] (Eterna round: R96, puzzle: Same State NG 1) | – | – | – | 312 nM | 36.8 nM | 128 nM |
| GCUCGUAUCACAGCCAACAUGAGGAUCACCCAUGUAUGUUGGUAGGAUAUCUAUAUUAAGGAUAUAGAGAAGGGCCGAACGAGC [SameState NG3 #11] (Eterna round: R96, puzzle: Same State NG 3) | – | – | – | 121 nM | 126 nM | 145 nM |
| GCCAUCGCAUGAGGAUAUGGCACCGAAACGGUGCCAGAAGGCAUGUCGUAAGACAUGAGGAUCACCCAUGUAGUUAAGAUGGCA [Mat - Same State NG 1 - JL mod - D91] (Eterna round: R96, puzzle: Same State NG 1) | – | – | – | 215 nM | 229 nM | 907 nM |
| GGUAGGUUACUACCAAUCUACAUGAGGAUCACCCAUGUGUAGGAGGAUAUGGUACCUAUUUGGUACCAGAAGGCCUUAUUAAUU [Fiskers NG3ss - 10] (Eterna round: R96, puzzle: Same State NG 3) | – | – | – | 143 nM | 81.8 nM | 98.8 nM |
| UGGCUGAGUCGAGGAUAUGAUCUUCAUAUAAUAACAUGAGGAUCACCCAUGUAUAAUUACAUGGAUCAGAAGGCGACUCAGCCA [SSNG2/13-B2] (Eterna round: R96, puzzle: Same State NG 2) | – | – | – | – | 362 nM | – |
| CGUAGGUAGCUGGAGGAUAUUCGAGUGGUAACAUGAGGAUCACCCAUGUGGAGUUAUUUACAUGAGGAGAAGGCUAGCUGCCUGC [JL-ss2-3.16 JL mod] (puzzle: Same State 2) | 14.3 nM | 107 nM | 136 nM | – | – | – |
| UCUCUUAUCGUAGGAUAUGUAGGAUAUGUACAUGAGGAUCACCCAUGUCUACCAGAGACAGAAGGACAGAAGGACGAACCACUC [pwkr ssNG2 2FMN 1F5s.4] (Eterna round: R96, puzzle: Same State NG 2) | – | – | – | 43.4 nM | 51.7 nM | 80.7 nM |
| UGUUGUUAAUUAGGAUAUGGGCACAUGAGGAUCACCCAUGUAUUUUCGAUGCUAUGUGGAGACGUCUAGAAGGAAUGGCUAACA [SameState NG2 #89] (Eterna round: R96, puzzle: Same State NG 2) | – | – | – | 205 nM | 212 nM | 219 nM |
| AAUCCUGUCACAGGAUAUCCGAGGUCAACCCUCGGAGAAGGGUGAUAGUCUAACAAACACACACAUGAGGAUCACCCAUGUUAA [Bigeceaor] (Eterna round: R96, puzzle: Same State NG 1) | – | – | – | 43.1 nM | 61.6 nM | 79.2 nM |
| ACAUGAGAGAUAGGAUAUUUUGUACCUACAUGUGACAUGAGGAUCACCCAUGUGGUAAGUAUGAGAAAGAAGGAUCAGAUAUGU [Equivalance 52 - Jieux - Same State NG 2] (Eterna round: R96, puzzle: Same State NG 2) | – | – | – | 26.3 nM | 63.7 nM | 79.8 nM |
| AAGGGCGGAAACGACAUGAGGAUCACCCAUGUUGCCGAAAGGCAGGAUAUCCGGCGAAAGCAGAAGGAGAAGGGUCAAGAACCA [AK SSNG3-V2-43] (Eterna round: R96, puzzle: Same State NG 3) | – | – | – | 38.9 nM | 24.7 nM | 43.8 nM |
| AUUUAACAAGCUUUUUGCUCGUCUUAUAAACAUGAGGAUCACCCAUGUAAUAGCGUGAGAGUAAAUAAAUUAAUAAU [JMF 97] (puzzle: Sensor for hsa-mir-208a) | 14.4 nM | 46.1 nM | 12.2 nM | – | – | – |
| UCGGGCUCUGCUCGUCUUGAGUUGCUCCCACAUGAGGAUCACCCAUGUAGUGUGCCGAUCGGCGCGCGGGUGACUUU [Atresoso] (puzzle: Sensor for hsa-mir-208a) | 456 nM | 151 nM | 451 nM | – | – | – |
| GAGAGAGGGUGAGGAUAUUUAGUGAUAAUGAUAAGAGAAGGCACAGACAUGAGGAUCACCCAUGUGGGAAUAAUCCAGAGAGAG [Parity 8 - Jieux - Same State NG 1] (Eterna round: R96, puzzle: Same State NG 1) | – | – | – | – | 167 nM | – |
| GUGGAGGGUUGAGGAUAUUGAAUACAUAUGUUUAACAUGAGGAUCACCCAUGUGGGUUGCGGUAUCGAGAAGGUAGGUUGCUGG [salish99_SSNG2_r04_039] (Eterna round: R96, puzzle: Same State NG 2) | – | – | – | 96.7 nM | 45.2 nM | 84.9 nM |
| AUAACACUGGCAGGAUAUGGGAUUGGAAGUGUUCCAGAAGGGCCAGAACGGCGAUGGACAUGAGGAUCACCCAUGUCUUAGCCU [MOD Powerstrip SSNG 1.4 (Unstable)] (Eterna round: R96, puzzle: Same State NG 1) | – | – | – | 13 nM | 7.66 nM | 9.48 nM |
| AGAAACAAAGGCUGAAAUAAUACAUGAGGAUCACCCAUGUCACAGGAUAUCCAGAUAAUAUUCGAGGAGAAGGGUGCAGCCAAC [Esanusdiat] (Eterna round: R96, puzzle: Same State NG 3) | – | – | – | 19.1 nM | 59.6 nM | 79.7 nM |
